In the supplement of paper PMC5998384:

Assays:
[1] = test system: HeLa Kyoto; assay: solubility in G1/S (NP-40 vs SDS abundance) (log2 ratio); higher = more soluble; settings: cell cycle stage: G1/S
[2] = test system: HeLa Kyoto; assay: solubility change mitosis vs G1/S (difference of NP-40 vs SDS log2 ratios) (log2 ratio difference); higher = more soluble in mitosis
[3] = test system: HeLa Kyoto; assay: thermal stability score vs G1/S (z-score of summed log2 fold changes over temperatures); higher = more thermally stable than in G1/S
[4] = cell cycle stage: early G1 (4.5 h after nocodazole release)
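Wherever solubility change mitosis vs G1/S (difference of NP-40 vs SDS log2 ratios) is given: synchronized HeLa Kyoto cells (double thymidine block for G1/S, nocodazole release for mitosis), protein amounts in NP-40 versus SDS lysates quantified by mass spectrometry, three biological replicates.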
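Wherever solubility in G1/S (NP-40 vs SDS abundance) is given: HeLa Kyoto cells arrested at G1/S by double thymidine block, proteins quantified by TMT10plex mass spectrometry in mild NP-40 versus SDS extracts, three biological replicates.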
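Wherever thermal stability score vs G1/S (z-score of summed log2 fold changes over temperatures) is given: synchronized HeLa Kyoto cells, proteins quantified by TMT10plex mass spectrometry, three biological replicates, mitosis taken 0.5 h after nocodazole release, G1/S directly after double thymidine block.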

BMS1, sequence (chain, as listed by the source): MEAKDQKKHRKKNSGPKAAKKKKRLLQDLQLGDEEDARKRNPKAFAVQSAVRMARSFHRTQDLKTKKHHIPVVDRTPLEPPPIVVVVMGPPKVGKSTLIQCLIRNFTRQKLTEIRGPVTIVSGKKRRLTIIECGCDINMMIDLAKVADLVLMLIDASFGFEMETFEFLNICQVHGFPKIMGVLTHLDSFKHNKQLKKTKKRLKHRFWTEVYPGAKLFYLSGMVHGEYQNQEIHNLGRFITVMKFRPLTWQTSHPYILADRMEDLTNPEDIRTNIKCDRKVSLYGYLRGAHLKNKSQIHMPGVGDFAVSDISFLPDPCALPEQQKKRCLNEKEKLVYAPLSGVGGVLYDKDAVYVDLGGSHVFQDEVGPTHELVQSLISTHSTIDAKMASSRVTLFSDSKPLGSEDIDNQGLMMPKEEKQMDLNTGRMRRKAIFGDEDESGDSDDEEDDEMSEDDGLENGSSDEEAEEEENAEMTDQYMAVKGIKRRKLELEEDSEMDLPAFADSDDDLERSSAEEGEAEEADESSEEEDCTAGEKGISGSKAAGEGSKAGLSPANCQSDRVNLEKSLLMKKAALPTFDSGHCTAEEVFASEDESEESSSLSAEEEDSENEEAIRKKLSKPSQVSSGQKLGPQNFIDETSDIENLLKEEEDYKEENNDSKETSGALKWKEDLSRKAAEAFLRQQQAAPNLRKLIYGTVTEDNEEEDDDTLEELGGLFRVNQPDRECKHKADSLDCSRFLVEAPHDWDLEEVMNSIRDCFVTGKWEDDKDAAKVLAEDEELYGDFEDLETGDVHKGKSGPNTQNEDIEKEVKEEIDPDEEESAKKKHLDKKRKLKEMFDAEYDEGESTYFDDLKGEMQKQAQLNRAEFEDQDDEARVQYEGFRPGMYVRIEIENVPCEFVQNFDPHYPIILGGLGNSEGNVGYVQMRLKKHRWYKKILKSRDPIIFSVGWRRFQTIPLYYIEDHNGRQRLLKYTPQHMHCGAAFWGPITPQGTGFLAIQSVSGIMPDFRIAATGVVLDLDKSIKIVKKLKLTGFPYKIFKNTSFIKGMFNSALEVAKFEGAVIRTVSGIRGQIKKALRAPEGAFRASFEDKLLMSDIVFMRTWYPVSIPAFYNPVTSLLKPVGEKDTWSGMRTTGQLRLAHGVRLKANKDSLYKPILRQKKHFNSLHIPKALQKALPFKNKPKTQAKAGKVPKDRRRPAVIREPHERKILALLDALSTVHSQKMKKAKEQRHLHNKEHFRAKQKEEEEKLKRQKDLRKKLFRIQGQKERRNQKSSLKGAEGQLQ
NCOA2, sequence (chain, as listed by the source): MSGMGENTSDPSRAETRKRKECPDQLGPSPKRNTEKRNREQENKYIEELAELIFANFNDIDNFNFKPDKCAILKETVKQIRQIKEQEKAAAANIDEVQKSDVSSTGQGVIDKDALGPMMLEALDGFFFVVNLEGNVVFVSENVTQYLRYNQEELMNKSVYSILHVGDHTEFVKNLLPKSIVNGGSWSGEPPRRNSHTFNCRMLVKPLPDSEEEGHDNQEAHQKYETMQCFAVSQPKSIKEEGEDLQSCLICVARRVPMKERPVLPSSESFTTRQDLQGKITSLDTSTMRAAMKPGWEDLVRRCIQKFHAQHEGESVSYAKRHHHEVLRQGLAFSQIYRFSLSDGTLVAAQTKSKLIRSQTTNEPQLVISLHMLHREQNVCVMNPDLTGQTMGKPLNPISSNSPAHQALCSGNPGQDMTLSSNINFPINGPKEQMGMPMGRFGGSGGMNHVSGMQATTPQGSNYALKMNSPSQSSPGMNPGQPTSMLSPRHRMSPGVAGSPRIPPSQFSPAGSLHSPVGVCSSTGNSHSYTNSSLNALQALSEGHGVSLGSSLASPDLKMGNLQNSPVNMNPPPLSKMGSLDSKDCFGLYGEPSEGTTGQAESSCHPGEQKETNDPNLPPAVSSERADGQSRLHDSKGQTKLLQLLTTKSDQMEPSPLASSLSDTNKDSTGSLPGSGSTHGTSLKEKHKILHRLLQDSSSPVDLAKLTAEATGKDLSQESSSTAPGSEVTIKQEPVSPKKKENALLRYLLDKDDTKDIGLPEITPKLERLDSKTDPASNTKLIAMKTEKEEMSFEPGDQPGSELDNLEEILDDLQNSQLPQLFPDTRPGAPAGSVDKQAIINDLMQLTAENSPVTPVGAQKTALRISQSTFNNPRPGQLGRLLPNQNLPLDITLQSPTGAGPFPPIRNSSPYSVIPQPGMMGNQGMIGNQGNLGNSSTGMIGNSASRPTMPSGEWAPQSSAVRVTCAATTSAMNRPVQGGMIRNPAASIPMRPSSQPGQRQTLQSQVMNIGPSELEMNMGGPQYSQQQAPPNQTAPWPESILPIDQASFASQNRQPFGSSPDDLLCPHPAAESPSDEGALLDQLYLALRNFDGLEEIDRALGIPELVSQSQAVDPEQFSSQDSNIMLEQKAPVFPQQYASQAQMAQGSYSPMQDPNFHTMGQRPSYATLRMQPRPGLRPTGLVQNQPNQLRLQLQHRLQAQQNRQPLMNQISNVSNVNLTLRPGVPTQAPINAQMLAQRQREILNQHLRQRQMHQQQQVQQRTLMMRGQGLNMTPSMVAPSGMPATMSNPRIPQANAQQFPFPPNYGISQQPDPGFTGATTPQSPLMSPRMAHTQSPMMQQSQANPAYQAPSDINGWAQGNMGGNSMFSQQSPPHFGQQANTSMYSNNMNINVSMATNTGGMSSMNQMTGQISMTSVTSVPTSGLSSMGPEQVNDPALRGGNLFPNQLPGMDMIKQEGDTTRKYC
PEX16, sequence (chain, as listed by the source): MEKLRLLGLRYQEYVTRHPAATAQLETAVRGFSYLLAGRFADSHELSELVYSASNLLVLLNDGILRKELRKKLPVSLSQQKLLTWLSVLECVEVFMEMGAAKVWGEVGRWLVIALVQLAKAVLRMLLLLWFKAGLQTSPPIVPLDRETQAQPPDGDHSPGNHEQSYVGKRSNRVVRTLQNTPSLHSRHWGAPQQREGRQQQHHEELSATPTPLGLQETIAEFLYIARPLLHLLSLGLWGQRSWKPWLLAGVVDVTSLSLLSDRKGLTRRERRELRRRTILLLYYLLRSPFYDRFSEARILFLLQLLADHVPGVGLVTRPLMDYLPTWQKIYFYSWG
TAF5L, sequence (chain, as listed by the source): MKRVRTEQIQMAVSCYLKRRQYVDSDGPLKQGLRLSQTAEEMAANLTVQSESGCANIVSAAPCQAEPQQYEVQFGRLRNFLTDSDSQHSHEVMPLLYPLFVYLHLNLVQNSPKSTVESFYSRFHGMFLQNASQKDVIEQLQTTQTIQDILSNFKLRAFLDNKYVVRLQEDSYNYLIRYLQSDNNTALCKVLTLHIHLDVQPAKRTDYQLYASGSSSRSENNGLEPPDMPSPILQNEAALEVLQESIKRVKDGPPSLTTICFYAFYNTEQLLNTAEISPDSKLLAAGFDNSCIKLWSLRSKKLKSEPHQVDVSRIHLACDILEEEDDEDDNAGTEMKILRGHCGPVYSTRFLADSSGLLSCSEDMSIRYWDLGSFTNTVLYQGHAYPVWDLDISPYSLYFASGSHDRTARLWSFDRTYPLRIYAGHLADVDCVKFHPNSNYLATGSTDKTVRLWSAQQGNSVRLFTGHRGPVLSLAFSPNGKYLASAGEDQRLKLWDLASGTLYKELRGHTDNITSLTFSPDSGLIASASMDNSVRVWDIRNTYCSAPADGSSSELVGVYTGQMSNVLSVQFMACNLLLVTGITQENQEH
POLR3K, sequence (chain, as listed by the source): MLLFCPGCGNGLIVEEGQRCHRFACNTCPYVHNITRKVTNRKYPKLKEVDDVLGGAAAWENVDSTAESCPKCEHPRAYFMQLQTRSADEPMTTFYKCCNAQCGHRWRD
TFAP2C, sequence (chain, as listed by the source): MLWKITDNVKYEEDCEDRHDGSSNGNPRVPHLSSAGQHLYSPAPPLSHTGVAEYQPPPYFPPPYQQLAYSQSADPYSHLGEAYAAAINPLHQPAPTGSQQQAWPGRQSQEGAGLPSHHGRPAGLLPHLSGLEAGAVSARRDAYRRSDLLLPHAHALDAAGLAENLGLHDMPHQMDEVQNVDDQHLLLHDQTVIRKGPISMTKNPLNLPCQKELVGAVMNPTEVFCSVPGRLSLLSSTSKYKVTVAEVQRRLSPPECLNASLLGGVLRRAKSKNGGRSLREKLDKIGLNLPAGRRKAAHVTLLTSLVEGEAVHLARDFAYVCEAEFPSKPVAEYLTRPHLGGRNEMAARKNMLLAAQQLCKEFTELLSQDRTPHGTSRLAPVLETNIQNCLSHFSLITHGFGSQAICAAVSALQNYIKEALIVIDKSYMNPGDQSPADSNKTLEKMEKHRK

Substance | solubility in G1/S (log2) [1] | solubility change mitosis (log2) [2] | thermal stability score [3, 4] | thermal stability score ([3]; cell cycle stage: mitosis)
BLM | -0.848 | 0.632 | -0.277 | -0.894
BMS1 | -2.43 | 0.919 | -1.95 | -3.51
CEP170B | 0.0802 | 0.338 | -3.46e-17 | -1.29e-17
DISP1 | 0.0363 | -0.159 | -0.198 | 0.756
KIAA1671 | -1.28 | 1.05 | -0.863 | -1.71
MAAAAPAAAAASSEAPAASATAEPEAGDQDSREVRVLQSLRGKICEAKNLLPYLGPHKMRDCFCTINLDQEEVYRTQVVEKSLSPFFSEEFYFEIPRTFQYLSFYVYDKNVLQRDLRIGKVAIKKEDLCNHSGKETWFSLQPVDSNSEVQGKVHLELKLNELITENGTVCQQLVVHIKACHGLPLINGQSCDPYATVSLVGPSRNDQKKTKVKKKTSNPQFNEIFYFEVTRSSSYTRKSQFQVEEEDIEKLEIRIDLWNNGNLVQDVFLGEIKVPVNVLRTDSSHQAWYLLQPRDNGNKSSKTDDLGSLRLNICYTEDYVLPSEYYGPLKTLLLKSPDVQPISASAAYILSEICRDKNDAVLPLVRLLLHHDKLVPFATAVAELDLKDTQDANTIFRGNSLATRCLDEMMKIVGGHYLKVTLKPILDEICDSSKSCEIDPIKLKEGDNVENNKENLRYYVDKLFNTIVKSSMSCPTVMCDIFYSLRQMATQRFPNDPHVQYSAVSSFVFLRFFAVAVVSPHTFHLRPHHPDAQTIRTLTLISKTIQTLGSWGSLSKSKSSFKETFMCEFFKMFQEEGYIIAVKKFLDEISSTETKESSGTSEPVHLKEGEMYKRAQGRTRIGKKNFKKRWFCLTSRELTYHKQPGSKDAIYTIPVKNILAVEKLEESSFNKKNMFQVIHTEKPLYVQANNCVEANEWIDVLCRVSRCNQNRLSFYHPSVYLNGNWLCCQETGENTLGCKPCTAGVPADIQIDIDEDRETERIYSLFTLSLLKLQKMEEACGTIAVYQGPQKEPDDYSNFVIEDSVTTFKTIQQIKSIIEKLDEPHEKYRKKRSSSAKYGSKENPIVGKAS [RASA2] | -0.1 | -0.128 | 0.349 | 0.0928
MAADVVGDVYVLVEHPFEYTGKDGRRVAIRPNERYRLLRRSTEHWWHVRREPGGRPFYLPAQYVRELPALGNPAAAAPPGPHPSPAAPEPLAYDYRFVSAAATAGPDGAPEESGGRASSLCGPAQRGAATQRSSLAPGLPACLYLRPAAPVRPAQSLNDLACAAVSPPAGLLGSSGSFKACSVAGSWVCPRPLARSDSENVYEVIQDLHVPPPEESAEQVDDPPEPVYANIERQPRATSPGAAAAPLPSPVWETHTDAGTGRPYYYNPDTGVTTWESPFEAAEGAASPATSPASVDSHVSLETEWGQYWDEESRRVFFYNPLTGETAWEDEAENEPEEELEMQPGLSPGSPGDPRPPTPETDYPESLTSYPEEDYSPVGSFGEPGPTSPLTTPPGWSCHVSQDKQMLYTNHFTQEQWVRLEDPHGKPYFYNPEDSSVRWELPQVPVPAPRSIHKSSQDGDTPAQASPPEEKVPAELDEVGSWEEVSPATAAVRTKTLDKAGVLHRTKTADKGKRLRKKHWSASWTVLEGGVLTFFKDSKTSAAGGLRQPSKFSTPEYTVELRGATLSWAPKDKSSRKNVLELRSRDGSEYLIQHDSEAIISTWHKAIAQGIQELSAELPPEESESSRVDFGSSERLGSWQEKEEDARPNAAAPALGPVGLESDLSKVRHKLRKFLQRRPTLQSLREKGYIKDQVFGCALAALCERERSRVPRFVQQCIRAVEARGLDIDGLYRISGNLATIQKLRYKVDHDERLDLDDGRWEDVHVITGALKLFFRELPEPLFPFSHFRQFIAAIKLQDQARRSRCVRDLVRSLPAPNHDTLRMLFQHLCRVIEHGEQNRMSVQSVAIVFGPTLLRPEVEETSMPMTMVFQNQVVELILQQCADIFPPH [ARHGAP27] | 0.0968 | -0.164 | 2.18 | 0.927
MAAPAPGAGAASGGAGCSGGGAGAGAGSGSGAAGAGGRLPSRVLELVFSYLELSELRSCALVCKHWYRCLHGDENSEVWRSLCARSLAEEALRTDILCNLPSYKAKIRAFQHAFSTNDCSRNVYIKKNGFTLHRNPIAQSTDGARTKIGFSEGRHAWEVWWEGPLGTVAVIGIATKRAPMQCQGYVALLGSDDQSWGWNLVDNNLLHNGEVNGSFPQCNNAPKYQIGERIRVILDMEDKTLAFERGYEFLGVAFRGLPKVCLYPAVSAVYGNTEVTLVYLGKPLDG [FBXO45] | 0.344 | -0.17 | -0.0815 | -0.292
MAAVVAATALKGRGARNARVLRGILAGATANKASHNRTRALQSHSSPEGKEEPEPLSPELEYIPRKRGKNPMKAVGLAWYSLYTRTWLGYLFYRQQLRRARNRYPKGHSKTQPRLFNGVKVLPIPVLSDNYSYLIIDTQAQLAVAVDPSDPRAVQASIEKEGVTLVAILCTHKHWDHSGGNRDLSRRHRDCRVYGSPQDGIPYLTHPLCHQDVVSVGRLQIRALATPGHTQGHLVYLLDGEPYKGPSCLFSGDLLFLSGCGRTFEGNAETMLSSLDTVLGLGDDTLLWPGHEYAEENLGFAGVVEPENLARERKMQWVQRQRLERKGTCPSTLGEERSYNPFLRTHCLALQEALGPGPGPTGDDDYSRAQLLEELRRLKDMHKSK [PNKD] | -0.0413 | -0.135 | 0.265 | -0.394
MAELDQLPDESSSAKALVSLKEGSLSNTWNEKYSSLQKTPVWKGRNTSSAVEMPFRNSKRSRLFSDEDDRQINTRSPKRNQRVAMVPQKFTATMSTPDKKASQKIGFRLRNLLKLPKAHKWCIYEWFYSNIDKPLFEGDNDFCVCLKESFPNLKTRKLTRVEWGKIRRLMGKPRRCSSAFFEEERSALKQKRQKIRLLQQRKVADVSQFKDLPDEIPLPLVIGTKVTARLRGVHDGLFTGQIDAVDTLNATYRVTFDRTGLGTHTIPDYEVLSNEPHETMPIAAFGQKQRPSRFFMTPPRLHYTPPLQSPIIDNDPLLGQSPWRSKISGSDTETLGGFPVEFLIQVTRLSKILMIKKEHIKKLREMNTEAEKLKSYSMPISIEFQRRYATIVLELEQLNKDLNKVLHKVQQYCYELAPDQGLQPADQPTDMRRRCEEEAQEIVRHANSSTGQPCVENENLTDLISRLTAILLQIKCLAEGGDLNSFEFKSLTDSLNDIKSTIDASNISCFQNNVEIHVAHIQSGLSQMGNLHAFAANNTNRD [LIN9] | 0.183 | 0.143 | 2.27 | 3.4
MAGENFATPFHGHVGRGAFSDVYEPAEDTFLLLDALEAAAAELAGVEICLEVGSGSGVVSAFLASMIGPQALYMCTDINPEAAACTLETARCNKVHIQPVITDLVKGLLPRLTEKVDLLVFNPPYVVTPPQEVGSHGIEAAWAGGRNGREVMDRFFPLVPDLLSPRGLFYLVTIKENNPEEILKIMKTKGLQGTTALSRQAGQETLSVLKFTKS [N6AMT1] | 0.483 | 0.0523 | 0.341 | 0.273
NAV2 | -0.147 | 0.109 |  | 
NBEAL1 | -0.894 | -0.118 |  | 
NCOA2 | 0.178 | -0.129 |  | 
NES | -1.35 | 0.912 |  | 
NSA2 | -2.43 | 1.41 |  | 

Substance | solubility in G1/S (log2) [1] | solubility change mitosis (log2) [2] | thermal stability score [3, 4] | thermal stability score ([3]; cell cycle stage: mitosis)
OBSL1 | -0.276 | -0.0157 |  | 
PDCD11 | -2.88 | 1.53 |  | 
PEX16 | -0.248 | -0.0414 |  | 
POLR3K | 0.354 | 0.031 |  | 
PRR14L | -0.0161 | 0.0491 |  | 
RIMS1 | 0.0741 | 0.0888 |  | 
SHPRH | -0.418 | 0.00438 |  | 
SLC7A6 | -0.00617 | -0.122 |  | 
SMG6 | -0.859 | 0.113 |  | 
SZT2 | -0.476 | 0.317 |  | 
TAF5L | -0.145 | -0.0612 |  | 
TFAP2C | -0.0214 | 0.119 |  | 
TNRC18 | 0.0268 | -0.234 |  | 
TTC28 | 0.0118 | -0.133 |  | 
ZFYVE26 | 0.0351 | -0.0176 |  | 
ZNF106 | -1.19 | 0.915 |  | 
